Columns and labels:
[1] = biological target: T1, soluble human insulin receptor-immunoglobulin heavy chain chimera (sIR-Fc; Bass et al., 1996) (human, UniProt P06213 28-956, limits assumed); assay: phage ELISA
T1 construct: extracellular domain; also called soluble IR (Bass construct); not shown: immunoglobulin heavy chain constant domains

[2] = biological target: T2, Soluble IGF-1R (sIGF-1R), R&D Systems Cat. # 391-GR/CF (UniProt P08069 31-935, limits assumed); assay: phage ELISA
T2 construct: extracellular domain

[3] = biological target: T3, Soluble IGF-1R (R&D Systems, Cat. # 391-GR/CF) (UniProt P08069 31-935, limits assumed); assay: phage ELISA: IGF-1R ratio over background divided by IR ratio over background
T3 construct: extracellular domain; also called sIGF-1R; IGFR

[4] = biological target: T3, Soluble IGF-1R (R&D Systems, Cat. # …)
[5] = biological target: T4, Insulin receptor prepared according to Bass et al., 1996 (human, UniProt P06213 28-956, limits assumed)
T4 construct: extracellular domain; also called IR; soluble IR (Bass construct); not shown: immunoglobulin constant domains (Fc or lambda) of the Bass construct

[6] = biological target: T4, Insulin receptor prepared according to …; assay: phage ELISA: IR ratio over background divided by IGF-1R ratio over background

Binder	IR/IGF-1R comparison [1]	Ratio over Background [1]	IGF-1R/IR comparison [2]	Ratio over Background [2]	Comparison IGF-1R/IR [3] [ratio]	Ratio over Background, IGF-1R [4] [ratio over background]	Ratio over Background, IR [5] [ratio over background]	Comparison IR/IGF-1R [6] [ratio]
NYRRQVFNGNFYDWFDRQVFSLVTPG [H2CA-3-D8-IGFR]	0.3	1.8	4	7.2	–	–	–	–
GRTMAVMAAGGPDDPFYHKLSELVQGG [B6Hα-2-D6-IR]	0.2	1	4.4	4.4	–	–	–	–
AETSVQVGWIRLQSVWPGEHWNTVDPFYHKLSELLRGSGA [B6L-4-D7-IR]	0.3	1.4	3.4	4.8	–	–	–	–
MMVVDGFYDALHQLVVAQSLG [20E2A-3-D10-IGFR]	0.3	1.8	3.9	6.9	–	–	–	–
QAVQPGFHEEFYDWFVRQVSTGVGGG [H2CA-4-H4-IGFR]	0.2	1	4.2	4.1	–	–	–	–
GCEVIVEEGDSADPFYHKLSELCQGS [B6Hα-2-D1-IR]	0.2	1.3	4.2	5.4	–	–	–	–
QSPVGSSHEDFYDWFFRQVAQSGAHQ [H2CA-3-D6-IGFR]	0.3	2.2	4	9	–	–	–	–
SRAKVEAEMPDSGDPFYHKLSELLASG [B6Hα-1-A3-IR]	0.3	0.8	3.3	2.6	–	–	–	–
RAGSSDFHEDFYEWFVRQVSLSLKGK [H2CA-2-B9-IGFR]	0.2	1.7	4.2	7	–	–	–	–
GCAVVEEAERSRGDPFYHKLSELIQGC [B6Hα-3-E7-IR]	0.2	1.3	4.3	5.6	–	–	–	–
LRRQAPVEENFYDWFVRQVSGDRVGG [H2CA-3-D7-IGFR]	0.3	0.8	3.7	3	–	–	–	–
DYKDGCITAENGAGDPFYHKLSELGGCSAAAGAP (not shown: rest of the phage display fusion (remainder of E-Tag, phage coat protein)) [B6Hα-1-B3-IR]	–	–	–	–	2.9	3.2	1.1	0.3
GGTKAVAKVGTRDDPFYHKLSELLQGS [B6Hα-4-G8-IR]	0.3	1.7	3.6	6.1	–	–	–	–
GIISQSCPESFYDWFAGQVSDPWWCW [H2CA-4-G9-IGFR]	0.1	0.6	16	9.5	–	–	–	–
GFREGNFYEWFQAQVT [E4Dα-4-H2-IR]	0.2	8.2	4.1	33.9	–	–	–	–
PPLASDLDVQFYGWFVQQVSPPGRGG [H2CA-2-B3-IGFR]	0.3	1	3.6	3.8	–	–	–	–
DYKDSRVAATKEKRPSDDPFYHKLSELLQGSAAAGAP (not shown: rest of the phage display fusion (remainder of E-Tag, phage coat protein)) [B6Hα-3-F7-IR]	–	–	–	–	3.1	3.1	1	0.3
LSVALSFYDALGQLVAGEGRW [20E2A-3-A12-IGFR]	0.3	1.1	3.9	4.3	–	–	–	–
VNQSGSIHENFYDWFERQVSHQRGVR [H2CA-4-F10-IGFR]	0.2	1	5.9	5.7	–	–	–	–
APDPSDFQEIFYDWFVRQVSRMPGGG [H2CA-1-A3-IGFR]	0.2	0.8	5.1	3.8	–	–	–	–
DYKDSSETAKMVTGTRDDPFYHKLSELVQGSAAAGAP (not shown: rest of the phage display fusion (remainder of E-Tag, phage coat protein)) [B6Hα-2-D8-IR]	–	–	–	–	3	3	1	0.3
SSIGGGFHENFYDWFSRQLSQSPPLK [H2CA-4-F7-IGFR]	0.2	0.8	4.1	3.2	–	–	–	–
RCGRELYHSTFYDWFDRQVAGRTCPS [H2CA-1-A7-IGFR]	0.3	0.6	3.7	2.2	–	–	–	–
CCLLCRFQQNFYDWFVCQGISRLRPL [H2CA-2-B4-IGFR]	0.3	1.1	3.6	4.1	–	–	–	–
FYVQQWGHENFYDWFDRQVSQSGGAG [H2CA-4-F1-IGFR]	0.3	0.9	3.8	3.5	–	–	–	–
GCVVEWQKWHGASDPFYHKLSELGGCS [B6Hα-3-F10-IR]	0.2	1.9	4.6	8.8	–	–	–	–
DYKDRCGDEEGWQENRRDDPFYHKLSELFGGCAAAGAP (not shown: rest of the phage display fusion (remainder of E-Tag, phage coat protein)) [B6Hα-3-E5-IR]	–	–	–	–	2.9	2.9	1	0.3
SSCDGAGHESFYEWFVRQVSGCRSV [H2CA-3-C8-IGFR]	0.2	1.2	4.8	5.6	–	–	–	–
TLDGGSFEEQFYDWFVRQLSYRTNPD [H2CA-4-G11-IGFR]	0.3	2.5	3.9	9.5	–	–	–	–
